Measurements from patent publication US20250215050A1.

Key:
[1] = molecular target: CHO host cell proteins (HCPs); assay: dynamic binding, CHO cell culture fluid; summary for G.1 and G.2 together
[2] = molecular target: CHO host cell proteins (HCPs); assay: static binding of CHO HCPs; summary
[3] = molecular target: CHO host cell proteins (HCPs); assay: static binding, null CHO-S cell culture fluid; summary for G.1 and G.2 together
[4] = molecular target: CHO host cell proteins (HCPs); assay: dynamic binding of CHO HCPs, residence time 1 min; summary
[5] = molecular target: CHO host cell proteins (HCPs); assay: dynamic binding of CHO HCPs, residence time 2 min; summary
[6] = molecular target: CHO host cell proteins (HCPs); assay: static binding on resin, Langmuir isotherm fit; non-competitive, null CHO-S harvest
[7] = molecular target: CHO host cell proteins (HCPs); assay: static binding on resin, competitive, CHO HCPs with 5 mg/mL NIST mAb
[8] = molecular target: CHO host cell proteins (HCPs); assay: static binding on resin, competitive, CHO HCPs with 1 mg/mL NIST mAb
[9] = molecular target: CHO host cell proteins (HCPs); assay: static binding on resin, Langmuir fit; competitive, CHO HCPs with 5 mg/mL NISTmAb; HCP ELISA
NIST mAb [10] = assay: static binding on resin, Langmuir isotherm fit; non-competitive, pure NISTmAb solution
[11] = molecular target: CHO host cell proteins (HCPs); assay: static binding on resin, Langmuir fit; competitive, CHO HCPs with 1 mg/mL NISTmAb; HCP ELISA
[12] = molecular target: CHO host cell proteins (HCPs); assay: static binding on resin, Langmuir isotherm fit; non-competitive, null CHO-S harvest; average HCP MW of 40 kDa assumed
[13] = molecular target: CHO host cell proteins (HCPs); assay: static binding on resin, Langmuir isotherm fit; non-competitive; average HCP MW of 40 kDa assumed (Table 1 prints 6.50)
[14] = molecular target: CHO host cell proteins (HCPs); assay: breakthrough curve, industrial CHO harvest (mAb 1.38 mg/mL, HCP 0.46 mg/mL), residence time 0.5 min
[15] = molecular target: CHO host cell proteins (HCPs); assay: static binding on resin, competitive against non-competitive conditions
[16] = molecular target: CHO host cell proteins (HCPs); assay: breakthrough curve, industrial CHO harvest (mAb 1.38 mg/mL, HCP 0.46 mg/mL), residence time 1 min
[17] = molecular target: CHO host cell proteins (HCPs); assay: adsorption kinetics on resin (FIG. 8A), null CHO-S harvest; average HCP MW of 40 kDa assumed
[18] = molecular target: CHO host cell proteins (HCPs); assay: breakthrough curve, industrial CHO harvest (mAb 1.38 mg/mL, HCP 0.46 mg/mL), residence time 5 min
NIST mAb [19] = assay: adsorption kinetics on resin (FIG. 8A), pure NIST mAb in PBS pH 7.4
[20] = molecular target: CHO host cell proteins (HCPs); assay: breakthrough curve, industrial CHO harvest (mAb 1.38 mg/mL, HCP 0.46 mg/mL), residence time 2 min
non-Ig plasma proteins [21] = assay: flow-through loading of cryo-poor plasma diluted 10-fold, above 10 CVs
non-Ig plasma proteins [22] = assay: flow-through loading of diluted cryo-rich plasma, two-column process

Row | Qmax (static binding capacity) [6] [mg/mL] | Qmax,HCPs [7] [mg per mL] | Qmax,HCPs [8] | Kd [9] [µM] | Qmax (static binding capacity) [9] [mg/mL] | Kd (NIST mAb [10]) [µM] | Qmax (static binding capacity) (NIST mAb [10]) [mg/mL] | Kd [11] [µM] | Qmax (static binding capacity) [11] [mg/mL] | Kd [12] [µM] | Substance | other results
1 | – | – | – | – | – | – | – | – | – | – | LigaGuard™ | DBC10% [1]: 16 to 22 mg/mL; equilibrium capacity (mg per mL of resin) [2]: 30; Qmax (maximum binding capacity) (mg per mL of resin) [3]: 28 to 30; 10% breakthrough capacity [4]: < 16 mg/mL; 10% breakthrough capacity [5]: < 22 mg/mL
2 | 21.8 | 10 | 13 mg/mL | 8.75 | 15.6 | 14.2 | 11.5 | 8.75 | 18.8 | 6.5 | first generation (G.1) LigaGuard™ resin | Kd [13]: 6.75 µM
3 | 24.5 | 16 | 18 mg per mL | 4.75 | 22.4 | 28.3 | 10.5 | 4.25 | 23.1 | 3.25 | second generation (G.2) LigaGuard™ resin | DBC10% (dynamic binding capacity at 10% breakthrough) [14]: 14.3 mg/mL; decrease of Qmax,HCPs on adding 1 mg/mL mAb [15]: 25%; DBC10% (dynamic binding capacity at 10% breakthrough) [16]: 16.7 mg/mL; kon [17]: 39000 M⁻¹ s⁻¹; DBC10% (dynamic binding capacity at 10% breakthrough) [18]: 17.6 mg per mL; kon (NIST mAb [19]): 8710 M⁻¹ s⁻¹; DBC10% (dynamic binding capacity at 10% breakthrough) [20]: 16.2 mg/mL
4 | – | – | – | – | – | – | – | – | – | – | second-generation LigaGuard™ adsorbent (plasma work, Examples 5 and 6) | QPP at saturation (non-Ig plasma proteins [21]): 30 mg/mL; binding capacity (mg per mL of resin) (non-Ig plasma proteins [22]): 32
